Assay results from publication PMC12421377, “Molecular basis for the recognition of low-frequency polyadenylation signals by mPSF”.

Columns and labels:
Conditions in all cases: protein: recombinant; copies: 1;1;1;1
[1] = biological target: T1, mPSF (CPSF160-WDR33-CPSF30-Fip1) (human, UniProt Q10570;Q9C0J8;O95639-2;Q6UN15 1-1443;1-572;1-244;1-594); assay: competition fluorescence anisotropy; vs 3 nM FAM-AAUAAA, 30 nM mPSF; 20 mM Tris pH 8.0, 150 mM NaCl, 10 mM DTT, 100 nM BSA, 0.01% NP-40; 45 min on ice, read at room temperature; triplicates
[2] = biological target: T1, mPSF (CPSF160-WDR33-CPSF30-Fip1); assay: competition fluorescence anisotropy; vs FAM-AAUAAA; 20 mM Tris pH 8.0, 150 mM NaCl, 10 mM DTT, 100 nM BSA, 0.01% NP-40; 45 min on ice, read at room temperature; triplicates
[3] = biological target: T1, mPSF (CPSF160-WDR33-CPSF30-Fip1); assay: cryo-EM structure (3.1 A); RNA up to 40 uM, mPSF 1.4 uM; 20 mM Tris pH 8.0, 150 mM NaCl, 10 mM DTT, 100 nM BSA, 0.01% NP-40; 45 min on ice, read at room temperature; triplicates
[4] = biological target: T1, mPSF (CPSF160-WDR33-CPSF30-Fip1); assay: cryo-EM structure (2.5 A); RNA up to 40 uM, mPSF 1.4 uM; 20 mM Tris pH 8.0, 150 mM NaCl, 10 mM DTT, 100 nM BSA, 0.01% NP-40; 45 min on ice, read at room temperature; triplicates

T1 sequence (Q10570 whole entry, chain 1 of 4): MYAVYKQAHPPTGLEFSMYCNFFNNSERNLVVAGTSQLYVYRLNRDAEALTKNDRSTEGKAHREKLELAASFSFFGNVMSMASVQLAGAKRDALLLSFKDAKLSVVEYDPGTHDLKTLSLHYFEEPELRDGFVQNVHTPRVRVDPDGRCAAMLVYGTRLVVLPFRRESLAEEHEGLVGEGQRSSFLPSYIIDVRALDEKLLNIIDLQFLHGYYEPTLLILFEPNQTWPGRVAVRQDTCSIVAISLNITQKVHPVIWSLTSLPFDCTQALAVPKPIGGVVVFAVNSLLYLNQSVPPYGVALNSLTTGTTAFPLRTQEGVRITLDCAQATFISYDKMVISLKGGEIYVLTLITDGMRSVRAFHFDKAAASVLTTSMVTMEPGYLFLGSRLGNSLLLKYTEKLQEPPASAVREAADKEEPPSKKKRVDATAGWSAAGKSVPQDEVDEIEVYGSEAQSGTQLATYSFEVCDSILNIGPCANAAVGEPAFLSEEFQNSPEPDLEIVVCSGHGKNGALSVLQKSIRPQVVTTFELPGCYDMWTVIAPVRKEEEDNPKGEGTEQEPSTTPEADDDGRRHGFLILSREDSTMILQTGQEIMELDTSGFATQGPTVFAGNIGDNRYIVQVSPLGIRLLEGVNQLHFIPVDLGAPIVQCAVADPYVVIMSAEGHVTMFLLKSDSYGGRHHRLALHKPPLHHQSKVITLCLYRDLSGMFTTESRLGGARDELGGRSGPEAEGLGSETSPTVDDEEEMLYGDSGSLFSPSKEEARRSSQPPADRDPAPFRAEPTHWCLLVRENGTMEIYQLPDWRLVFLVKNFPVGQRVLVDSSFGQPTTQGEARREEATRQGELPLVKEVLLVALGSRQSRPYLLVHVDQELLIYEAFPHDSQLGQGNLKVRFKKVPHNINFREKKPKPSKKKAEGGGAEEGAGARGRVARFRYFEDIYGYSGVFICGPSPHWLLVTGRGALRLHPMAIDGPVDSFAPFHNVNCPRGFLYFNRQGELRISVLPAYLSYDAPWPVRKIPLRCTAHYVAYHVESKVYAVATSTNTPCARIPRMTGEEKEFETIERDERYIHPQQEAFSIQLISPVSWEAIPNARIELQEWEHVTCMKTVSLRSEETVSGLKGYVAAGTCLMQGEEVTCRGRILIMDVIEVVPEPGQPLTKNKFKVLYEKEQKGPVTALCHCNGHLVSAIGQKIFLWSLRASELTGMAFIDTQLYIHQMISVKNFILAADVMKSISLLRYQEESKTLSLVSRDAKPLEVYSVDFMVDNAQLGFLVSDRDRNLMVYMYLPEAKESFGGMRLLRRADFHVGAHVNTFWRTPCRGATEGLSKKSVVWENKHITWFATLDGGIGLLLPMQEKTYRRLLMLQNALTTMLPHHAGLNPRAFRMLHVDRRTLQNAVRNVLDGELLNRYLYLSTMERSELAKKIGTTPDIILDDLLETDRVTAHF
T1 sequence (Q9C0J8 1-572, chain 2 of 4): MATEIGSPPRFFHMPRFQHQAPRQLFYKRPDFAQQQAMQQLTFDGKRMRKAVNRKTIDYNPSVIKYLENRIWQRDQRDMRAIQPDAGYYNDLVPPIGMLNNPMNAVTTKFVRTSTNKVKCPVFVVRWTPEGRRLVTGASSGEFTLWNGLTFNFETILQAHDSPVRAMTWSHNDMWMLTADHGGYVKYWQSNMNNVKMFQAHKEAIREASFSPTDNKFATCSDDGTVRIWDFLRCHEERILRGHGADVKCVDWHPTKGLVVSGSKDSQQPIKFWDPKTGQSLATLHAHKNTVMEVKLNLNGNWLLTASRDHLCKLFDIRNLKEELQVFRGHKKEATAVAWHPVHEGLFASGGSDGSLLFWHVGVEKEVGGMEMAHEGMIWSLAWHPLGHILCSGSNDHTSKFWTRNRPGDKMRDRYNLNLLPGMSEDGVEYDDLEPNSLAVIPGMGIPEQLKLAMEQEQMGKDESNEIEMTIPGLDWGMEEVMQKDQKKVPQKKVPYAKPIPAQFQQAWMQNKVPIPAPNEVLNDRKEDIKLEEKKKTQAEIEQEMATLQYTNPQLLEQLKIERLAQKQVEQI
T1 sequence (O95639 other isoform, or with tags, fused parts or gaps, chain 3 of 4): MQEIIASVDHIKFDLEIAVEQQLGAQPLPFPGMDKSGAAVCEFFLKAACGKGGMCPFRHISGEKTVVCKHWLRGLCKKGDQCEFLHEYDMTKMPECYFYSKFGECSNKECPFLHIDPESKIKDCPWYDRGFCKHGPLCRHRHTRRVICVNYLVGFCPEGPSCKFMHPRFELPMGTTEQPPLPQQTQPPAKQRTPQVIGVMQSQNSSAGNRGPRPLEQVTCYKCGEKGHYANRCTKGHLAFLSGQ
T1 sequence (Q6UN15 whole entry, chain 4 of 4): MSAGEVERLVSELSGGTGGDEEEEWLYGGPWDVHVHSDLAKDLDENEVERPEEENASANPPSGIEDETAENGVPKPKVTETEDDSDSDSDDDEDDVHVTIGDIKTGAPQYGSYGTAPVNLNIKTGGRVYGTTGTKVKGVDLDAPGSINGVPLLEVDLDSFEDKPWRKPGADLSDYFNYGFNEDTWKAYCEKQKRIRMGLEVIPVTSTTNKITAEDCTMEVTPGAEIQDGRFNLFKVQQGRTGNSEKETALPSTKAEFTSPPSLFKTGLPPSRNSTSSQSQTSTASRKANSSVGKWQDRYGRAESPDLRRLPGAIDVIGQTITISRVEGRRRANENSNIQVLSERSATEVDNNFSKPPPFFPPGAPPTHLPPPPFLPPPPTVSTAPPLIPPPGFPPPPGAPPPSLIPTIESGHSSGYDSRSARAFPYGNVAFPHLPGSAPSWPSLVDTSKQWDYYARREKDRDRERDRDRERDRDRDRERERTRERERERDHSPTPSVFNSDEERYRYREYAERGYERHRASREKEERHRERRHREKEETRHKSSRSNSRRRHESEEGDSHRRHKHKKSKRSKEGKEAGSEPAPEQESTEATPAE

Binder	Kd [2] [nM]	also measured
UGCAAUAAACAA (ssRNA) [AAUAAA 12-mer]	–	Kd [1]: 40 nM
UGCGAUAAACAA (ssRNA) [GAUAAA 12-mer]	580	–
UGCAACAAACAA (ssRNA) [AACAAA 12-mer]	13000	–
UGCAAUAGACAA (ssRNA) [AAUAGA 12-mer]	2000	–
UGCAUUAUACAA (ssRNA) [AUUAUA 12-mer]	2140	–
UGCACUAAACAA (ssRNA) [ACUAAA 12-mer]	2700	–
UGCAAUAAGCAA (ssRNA) [AAUAAG 12-mer]	11500	–
UGCAAUAAUCAA (ssRNA) [AAUAAU 12-mer]	–	binding result [3]: binds
UGCAGUAAACAA (ssRNA) [AGUAAA 12-mer]	–	binding result [4]: binds
UGCAUUAAACAA (ssRNA) [AUUAAA 12-mer]	79	–
UGCUAUAAACAA (ssRNA) [CUAUAAA-context UAUAAA 12-mer]	520	–
UGCAAUAUACAA (ssRNA) [AAUAUA 12-mer]	2500	–
UGCAAUACACAA (ssRNA) [AAUACA 12-mer]	2200	–
UGCAAGAAACAA (ssRNA) [AAGAAA 12-mer]	1870	–
UGCAAUGAACAA (ssRNA) [AAUGAA 12-mer]	1180	–
UGCCAUAAACAA (ssRNA) [CAUAAA 12-mer]	780	–
